In publication PMC4033627 one finds Kd and dH data, which are given here for two substances.

The target of experiment [1] is Sst2^catD354A (Asp354Ala mutant of the catalytic domain of Sst2) (S. pombe) (UniProt Q9P371). Nature of the experiment: ITC.
The target in experiment [2] is catalytic domain of Sst2 (residues 245–435), Sst2^cat (S. pombe) (UniProt Q9P371). Nature of the experiment: ITC. A general note: ITC needs no label: the signal is the heat of the interaction.

pKd: −log10 of the molar value.

Sst2^catD354A (Asp354Ala mutant of the catalytic domain of Sst2) (S. pombe), sequence (Q9P371 245-435 D354A): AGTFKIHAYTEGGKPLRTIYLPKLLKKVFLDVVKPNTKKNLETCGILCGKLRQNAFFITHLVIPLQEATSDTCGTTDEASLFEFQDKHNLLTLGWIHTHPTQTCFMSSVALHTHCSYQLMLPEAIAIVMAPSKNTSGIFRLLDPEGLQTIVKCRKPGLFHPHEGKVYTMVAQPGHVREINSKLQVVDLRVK
catalytic domain of Sst2 (residues 245–435), Sst2^cat (S. pombe), sequence (Q9P371 245-435): as the sequence (Q9P371 245-435 D354A) above, with A110D counted along it

What is called pKd is the Kd on a negative log10 scale, so that one unit is a factor of ten. In experiment [1], “Lys63-linked diubiquitin, enzymatically synthesized from Lys63Arg and Asp77 ubiquitin mutants” showed a pKd of 5.96 and a dH of 11.8 kcal/mol. “ubiquitin (from a pRSETA plasmid, for isothermal titration calorimetry) (from UniProt P0CG48 1-76) (natural protein)” had a dH in experiment [2] of 11.9 kcal/mol.
